These results are taken from patent US9428773B2, “Methods of producing acetoin and 2,3-butanediol using photosynthetic microorganisms” (The Regents of the University of California, priority 2012, dated 2016).

Experiment [1] in a line: sADH (ADH) activity in crude cell lysate of E. coli production strains, oxidation of NAD(P)H with acetoin. The class given is biochemical. The conditions noted are these: expressed in E. coli, excess substrate, NADPH. As for the experimental part:
(§1) Alcohol dehydrogenase (ADH) activity was determined by measuring the oxidation of NAD(P)H. The reaction mixture contained 50 mM 3-(N-morpholino) propanesulfonic acid (MOPS) pH 7.0, 25 mM acetoin and 0.2 mM NAD(P)H. The consumption of NAD(P)H was monitored at 340 nm. One specific unit of ADH activity corresponds to the oxidation of 1 nmol of NAD(P)H per minute per mg of protein.
The resulting E. coli strains were cultured in modified M9 medium, containing 50 g/L glucose, at 30° C. for 40 h (FIG. 4B). […] The fourth strain, expressing adh (C. b.), maintained a relatively low acetoin concentration (less than 6% of total production) and produced 13.8 g/L total 23BD as a mixture of (R,R)-23BD and meso-23BD stereoisomers forming 74% and 21% of total production respectively (FIG. 4B). The strains expressing adh (T. b.) and adh (C. p.) produced 2.4 g/L and 14.2 g/L 23BD respectively with both isomers formed in roughly equal amounts in each. […] Enzyme activities measured from crude cell lysate isolated during production were high for both sADH (C. p.) and sADH (C. b.), at 265 and 440 nmol min^−1 mg^−1 respectively, when excess substrate was used (FIG. 4B). […] The major 23BD product of each of the adh expressing strains matched the stereochemistry predicted by previous characterization (41-43).

Experiment [2] is described as follows: ADH activity in crude cell lysate of modified S. elongatus strains, oxidation of NAD(P)H with acetoin. It counts as biochemical. The note with it: for ADH enzyme activity in crude cell lysate: expressed in S. elongatus, lysate isolated during production. As for the experimental part:
Enzyme Assays. S. elongatus cells were collected 72 h after induction by centrifugation (4000 g, 5 min, washed in 50 mM potassium phosphate buffer (pH 7.5) and resuspended in the same buffer. Crude extract were prepared with 0.1-mm glass beads and a Mini bead beater (Mini Bead Beater 8 (BioSpec Products, Inc., Bartlesville, Okla.)). The total protein determination was performed by Advanced Protein Assay Reagent from Cytoskeleton, Inc. (Denver, Colo.).
as §1
23BD production was detected in three out of four S. elongatus strains (FIG. 4C). […] The strain expressing adh (T. b.) produced 301 mg/L (R,R)-23BD with trace amounts of meso-23BD but also allowed for accumulation of acetoin (FIG. 4C). The strain expressing adh (C. b.) produced 270 mg/L (R,R)-23BD (major) and undetectable levels of acetoin, indicating high flux through the intermediate. The strain expressing adh (C. p.) produced 65 mg L^−1 23BD, with meso-23BD as the primary product and accumulated toxic levels of acetoin. The remaining S-installing adh (L. p.) was not active in S. elongatus, resulting only in accumulation of acetoin. […] Activity for adh (C. p.) was roughly 5-fold higher again than adh (C. b.), however low production and acetoin accumulation was observed, similar to the result in E. coli. […] The two sADH with highest production and lowest acetoin accumulation were further tested with the stronger ALDC gene alsD (A. h.). Both strains increased production, yielding 568 mg L^−1 from adh (T. b.) and 952 mg L^−1 from adh (C. b.), the latter of which is 3 fold higher than production with alsD (E. a.) over 72 hours (FIG. 4C).

B1: sADH (T. b.): Thermoanaerobacter brockii HTD4 secondary alcohol dehydrogenase, NADPH, R-installing (SEQ ID NO: 23) (protein, listed as Thermoanaerobacter brockii)
chain: MKGFAMLSIGKVGWIEKEKPAPGPFDAIVRPLAVAPCTSDIHTVFEGAIGERHNMILGHEAVGEVVEVGSEVKDFKPGDRVVVPAITPDWRTSEVQRGYHQHSGGMLAGWKFSNVKDGVFGEFFHVNDADMNLAHLPKEIPLEAAVMIPDMMTTGFHGAELADIELGATVAVLGIGPVGLMAVAGAKLRGAGRIIAVGSRPVCVDAAKYYGATDIVNYKDGPIESQIMNLTEGKGVDAAIIAGGNADIMATAVKIVKPGGTIANVNYFGEGEVLPVPRLEWGCGMAHKTIKGGLCPGGRLRMERLIDLVFYKRVDPSKLVTHVFRGFDNIEKAFMLMKDKPKDLIKPVVILA
For B1, the “sADH enzyme activity in crude cell lysate” value (“sADH enzyme activity” below) in experiment [1] is reported as “Relatively low activity”. In experiment [2], the “ADH enzyme activity in crude cell lysate” value was 6.3 nmol min^−1 mg ^−1.

B2: sADH (C. b.): Clostridium beijerinckii NRRL B593 secondary alcohol dehydrogenase, NADPH, R-installing (SEQ ID NO: 21) (protein, listed as Clostridium beijerinckii)
chain: MKGFAMLGINKLGWIEKERPVAGSYDAIVRPLAVSPCTSDIHTVFEGALGDRKNMILGHEAVGEVVEVGSEVKDFKPGDRVIVPCTTPDWRSLEVQAGFQQHSNGMLAGWKFSNFKDGVFGEYFHVNDADMNLAILPKDMPLENAVMITDMMTTGFHGAELADIQMGSSVVVIGIGAVGLMGIAGAKLRGAGRIIGVGSRPICVEAAKFYGATDILNYKNGHIVDQVMKLTNGKGVDRVIMAGGGSETLSQAVSMVKPGGIISNINYHGSGDALLIPRVEWGCGMAHKTIKGGLCPGGRLRAEMLRDMVVYNRVDLSKLVTHVYHGFDHIEEALLLMKDKPKDLIKAVVIL
Regarding B2, the “sADH enzyme activity” value in experiment [1] was determined as 440 nmol/min/mg. In addition, in experiment [2] (S. elongatus crude cell lysate), the “fold higher activity than adh (T. b.)” value is given as “roughly 10 fold”. Also, the “ADH enzyme activity in crude cell lysate” value in experiment [2] is 56.3 nmol min^−1 mg ^−1.

B3: sADH (C. p.): Candida parapsilosis M203011 secondary alcohol dehydrogenase, NADPH, S-installing (SEQ ID NO: 17) (protein, listed as Candida parapsilosis)
chain: MGEIESYCNKELGPLPTKAPTLSKNVLDLFSLKGKVASVTGSSGGIGWAVAEAYAQAGADVAIWYNSHPADEKAEHLQKTYGVHSKAYKCNISDPKSVEETISQQEKDFGTIDVFVANAGVTWTQGPEIDVDNYDSWNKIISVDLNGVYYCSHNIGKIFKKNGKGSLIITSSISGKIVNIPQLQAPYNTAKAACTHLAKSLAIEWAPFARVNTISPGYIDTDITDFASKDMKAKWWQLTPLGREGLTQELVGGYLYLASNASTFTTGSDVVIDGGYTCP
Take B3: in experiment [1], the “sADH enzyme activity” value worked out at 265 nmol/min/mg. The “fold higher activity than adh (C. b.)” value in experiment [2] (S. elongatus crude cell lysate) is given as “roughly 5 fold”.

B4: adh (L. p.): Leuconostoc pseudomesenteroides CHCC 2114 secondary alcohol dehydrogenase, NADPH, S-installing (SEQ ID NO: 19) (protein)
chain: MTKKVAMVTGGAQGIGEAIVRRLSADGFAVAVADLNEAKSKEVATDIEKNGGTAIAVKLDVSDREGFFAAVKEVAEKLGGFDVLVNNAGLGPTTPIDTITPELFDKVYHINVAGDIWGIQAAVEQFKKNGNGGKIINATSQAGVVGNPNLSLYSSTKFAVRGLTQVAARDLAEQNITVNAYAPGIVKTPMMFDIAHEVGKNAGKDDEWGMQTFAKDIALKRLSEPEDVAAAVAFLAGPDSNYITGQTIEVDGGMQFH
modifications: Leuconostoc pseudomesenteroides
For the molecule B4, the “ADH enzyme activity in crude cell lysate” value in experiment [2] is “could not be detected”.
